Assay results as given in the nanobody polyreactivity screen of Harvey et al. (2022).

test: yeast display, Sf9 membrane polyspecificity reagent, FACS + sequencing; frameworks hold sequencing errors
Outline: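 Using colony PCR, genes from sorted yeast display clones were amplified, then sequenced on MiSeq at 2 × 250 and filtered by CDR length. The clones had been stained with 10% biotinylated, detergent-solubilized Sf9 membrane reagent for 1 hour at 4 °C and sorted by FACS into low and high (top ~1%) gates on anti-HA and streptavidin fluorescence. Polyreactivity labels come from the gate of origin.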

Sequence | polyreactivity (PSR sort gate)
QVQLVESGGGLVQAGGSLRLSCAASGRTFYVYTMGWYRQAPGKERELVAAITTGGSTNYADSVKGRFTISRDNAKNTVYLQMNSLKPEDTAVYYCAARVSTVFKRYYYWGQGTQVTVSS | high polyreactivity
QVQLVESGGGLVQAGGSLRLSCAATGSIFRRYAMGWYGQAPGKERELVAAISWSGGSTYYADSVKGRFTISRDNAKNTVYLQMNSLKPEDTAVYYCAARHRQQKLDYWGQGTQVTVSS | high polyreactivity
QVHLVESGGGLVQAGVSLRLSCAASGSTFDYYAMGWYIQAPGTERELVAGITGGGSTYYADSVKGRFTISRDNAKNTVYLQMNSLKPEDTAVYYCNAGPAQRYDYWGQGTQVTVSS | low polyreactivity
QVQLVESGGGLVQAGGSLRLSCAASGSIFLVYAMGWYRQAPGKERELVAAISRSGRTYADSVKGRFTISRDNAKNTVYLQMNSLKPEDTAVYYCNKLAVRPGYGSTYDYWGQGTQVTVSS | high polyreactivity
QVQLVESGGGLVQAGGSLRLSCAASGSTLVQYVMGWYRQAPGKERELVAAISGSGGSTYYADSVKGRFTISRDNAKNTVYLQMNSLKPEDTAVYYCAASRRSGYGYWGQGTQVTVSS | high polyreactivity
QGQLVESGGGLVQAGGSLRLSCAASGIIFILYTMGWYRQAPGKEREFVATISSGGGSTFYADSVKGRFTISRDNAKNTVYLQMNSLKPEDTAVYYCAAEQLYYCERYYIWGYYYWGQGTQVTVSS | low polyreactivity
QVQLVESGGGLVQAGGSLRLSCSASGGIFSAYAMGWYRQSPGKERELVAAISRTGGSTYYADSVKGRFTISRDNAKNTVYLQMNSLKPEDTAVYYCNAVYRRYPEFDYWGQGTQVTVSS | high polyreactivity
QVQLVESGGGLVQAGGSLRLSCAASGSTFFTNVKGWYRQAPGKERELVAVIRWRGSDTYYADSVKGRFTISRDNAKNTVYLQMKSLKPEDTAFYYCNAKESFYPTTGEQGYSYAYWGQGTQLTVSS | low polyreactivity
QVQLVESGGGLVQAGGSLRLSCAASGSIFSRNAMGWYRQAPGKERELVAGISTGGSTNYADSVKGRFTISRDNAKNTVYLQMNSLKPEDTAVYYCAAPLAYEGDDWGQGTQLTVSS | low polyreactivity
QVQLVESGGGLVQAGGSLRLSCAASGRTFPSYAMGWYRQAPGKERELVAAITRGGSTNYADSVKGRFTISRDNAKNTVYLQMNSLKPEDTAVYYWAAARWRWQLARDDYWGQGTQVTVSS | high polyreactivity
QVQLVESGGGLVQAGGSLRVSCAASGGTFTAYAMGGYIQAPGNERQLVAAISASGDSTYYADSVKGRFTISRDNPKHTVYLQMNSLKPDDTAVYYCAADWAYKYELDYWGQGTQVTVSS | low polyreactivity
QVQLVVSGGGLVQAGGSLRLSCAASGSIFLVNVMGGDRQAPGKERELVAAITWSGGRTYYADSVKGRFTISRDNAKNTVYLPRNSRLPEDTAVYYCAAQTPRFVWQKGPLDSEDYWGQGTQVTVSS | high polyreactivity
QVQLVESGGGLVQAGGSLRLSCAASGITFYDNAMGWYRQAPGKERELVAGISSGGRTYYADSVKGRFTISRDNAKNTVYLQMNSLKPEDTAVYYCNAASLVAYLARLGRDYWGQGTQVTVSS | low polyreactivity
QVQLVESGGGLVQAGGSLRLICAASGSILYKYAMGWYRQAPGKERELVAAISSRGGNTYYADSVKGRFTISRDNAKNTVYLHMNSLKPEDTAVYYCAADMWAGKYGEYDYWGQGTQVTVSS | high polyreactivity
QVQLVESGGGLVQAGGSLRLSCAASGSTFFDYAMGWYRKAPGKERELVAAISRSGDTNYADSVKGRFTISRDNAKNTVYLQMKSLKPEDTAVYYCAKDWAYRRHWVGFYYWGQGTQVTVSS | low polyreactivity
QVQLVESGGGLVQAGGSLRLSCAASGLTFYGYVMGWYRHAPGKERELVASISRSGGRTYYADSVKGRFTISRDNAKNTVYLQMNSLKAEDTAVYYCGAGDQVGQEDDYWGQGTQGTVSS | low polyreactivity
QVQLVESGGGLVQAGGSLRLSCAASGSIFVKNAMGWYRQAPGKERELVARSSFSGGSTYYADSVKGRFTISRDNAKNTVYLQMNSLKPEDTAVYYCAVDGGEFSSYGYWGQGTQVTVSS | low polyreactivity
QVQLVESGGGLVQAGGSLRLSCAASGSTFTVNGMGWYRQAPGKERELVASITWSGGSTYYADTVKGRFTISRDNAKNTVYLQMNSLKPEDTAVYYCAADEKLYITGYDYWGQGTQVTVSS | low polyreactivity
QVQLVESVGGLVQAGGSLRLSCDASGSTFPKYAMGRSRQAPAKEIELVAGISWRGGSTYYADSVKGRFTISRDNAKNTVYLQMNSLKPEDTAVYYCNKYLYYSFQDDYWGQGTQVTVSS | high polyreactivity
QVQLVESGGGLVQAGGSLRLSCAASGRILPFNAMGWYRPAPGKERELVAAIRWRGSSTYYADSVKGRFTISRDNAKNTVYLQMNSLKPEDTAVYYCAAPSSVRGKVISADYGYWGQGTQVTVSS | high polyreactivity
QVQLVESGGVLVQAGGSLRLSCADSGSIFILYAMGWYRHAPGKESEFVAAITYRGGSTKYADSVKGRFTISRDNAKNTVYLQMNRLKPEDTAVYYCAAGGYWRSPCGSVSRYGYWGQGTQVTVSS | high polyreactivity

Sequence | polyreactivity (PSR sort gate)
QVQLVESGGGLVQAGGSLRLSCAASGRIFTSYAMGWYRQAPGKERELVASITSGGRTDYADSVKGRFTISRDNAKNTVYVQMNSLKPEDTAVYYCNVGTRRALYYPYRPGRYDYWGQGTQVTVSS | low polyreactivity
QVQLVESGGGLVQAGGSLRLSCAASGFTFSWYAMGWYRQAPGKERELVAAITSGGGTNYADSVKGRFTISRDNAKNTVYLQMNSLKPEDTAVYYCAARGRWFYYLDDYWGQGTQVTVSS | low polyreactivity
QVQLVESGGGLVQAGGSLRLSCAASGFTFTYYAMGWYRQAPGKERELVAAITKSGGSTYYADSVKGRFTISRDNAKNTVYFQMNSLKPEDTAVYYCAADTRYGRERYYWGQGTQVTVSS | high polyreactivity
QVQLVESGGGLVQAGGSLRLSCAASGRIFGGYARGWYRQAPGKERELVAVINGGTSTKYADSVKGRFTISRDNAKNTVYLQMNSLKPEDTAVYYCAKTRHDSLQNRNRYDYWGQGTQVTVSS | low polyreactivity
QVQLVESGGGLVQAGGSLRLSCAASGLIFRYYAMGWYRQAPGKERELVATIRGGGSTYYADSVKGRFTISRDNAKNTVYLQMNSLKPEDTAVYYCAADPYSYGARGSRGDYWGQGTQVTVSS | low polyreactivity
QVQLVESGGGLVQAGGSLRLSCAASGITFDSYAMGWYRQAPGKERELVAAISYSGGSTYYADSVKGRFTISRDNAKNTVYLQMNSLKPEDTAVYYCAAASDDDYDYWGQGTQVTVSS | low polyreactivity
QVQLVESGGGLVQAGGSLRLSCAASGSTFYTYAMGWYRQAPGKERELVAAISWRTGSTYYADSVKGRFTISRDNAKNTVYLQMNSLKPEDTAVYYCATDYYIDTWDWYEEYEYWGQGTQVTVSS | high polyreactivity
QVQLVESGGGLVQAGGSLRLSCAASGFTFYLYTMGWYRQAPGKERQLVAAISGSGGSTYYADSVKGRFTISRDNAKITVYLQMNSLKPEDTAVYYCAASPVRVGKVIDRRDYWGQGTQVTVSS | high polyreactivity
QVQLVESGGGLVQAGGSLRLSCAASGITSCFSAMGWYRPAPGQERELVAGISSGGSTNYADSVKGRFTISRDNAKNTVYLQMTSLKPEDTAVYYCPATFYNRYETRYYYWGQGTQVTVSS | high polyreactivity
QVQLVESRGGLVQAGGSLRLSCGASGFIFKPYAMGWYRQAPGKERELVASISTGARTYYADSVKGRFTISRDNAKNTVYLQMNSLKPEDTGVYYCAAAYSRWITRYDYWGQGTQVTVSS | high polyreactivity
QVQLVESGGGLVQAGGSLRLSCPASGRTFGDYAMGWYRQAPGKERELVAAISSSGGRTYYADSVKGRFTISRDNAKNTVYLQMNSLKPEDTAVYYCAAQSKYYQYYSWGQGTQVTVSS | high polyreactivity
QVQIVESGGGLVQAGGSLRLSCASSGSTFVPNDMGSYRQAPWKERELVAAISRSGDDTYYADSVKGRFTISRDNAKNTVYFQMNSLIPEDTAVYYCNAAGRPFFLRPLRWELDYWGQGTQVTVSS | low polyreactivity
QVQLVESGGGLVQAGGSLRLICAASGLTYFSYAMGWYRQAPGKQREFVAAITRRGGRTYYADSVKGRFTISRDNAKYTVYLQMNSLKPEDTAVYYCNAVPVLISVYRMEYWGQGTQVTVSS | high polyreactivity
QVQLVESGGGLVQAGGSLRLSCAASGRISDVYVMVWYRQAPGKERELFAAITWSGGDTYYADSVKGRFTISRDNAKNTVYLQMNSLKPEDTEVYYCTADTGKWGGNGWYDFDYWGQGTQVTVSS | low polyreactivity
QVQLVESGGCLVKAGCSLRLSCAASGRIFFVNAMGWYRPAPGKECELVAAISRGGSTNYADSVKGRFTISRDNAMNTVYLQMNILKPEDTEVYYCAAGYVRYPGVIDEYWGPGTQVTVSS | low polyreactivity
QVKLVESAGGLVQARGSLRLSCAGSGITFVRNAMGWYRQAPGKERELVAAISSGGSTYYADSVKGRFTISRDNAKNTVYLQMNSLKPEDTAVYYCNAQIYGRLYRYRWHFYWGQGTQVTVSS | high polyreactivity
QVQLVESGGGLVQAGGSLLLSCAASGRTFYYNDMGWYRQAPGKERELVASISYGGSTYYADSVKGRFTISRDNAKNTVYLQMNSLKPEDTAVYYCATVDWRWRYARRPRYDYWGQGTQVTVSS | high polyreactivity
QVQLVESGVGIVQAGGSLRLSCAASGRIFFTYAMVWYRQAPGKERELVASITGSGGSTYYADSVKGRFTISRDNAKNTVYLQMNSLKPEDTAVYYCAAALFRRQLYRKFYYWGQGTQVSVSS | low polyreactivity
QVQLVESGRGLVQAGGSLRLSCAASGRIFKGYAMGWYRQAPGKERELVAAITTSGGGTYSADSVKGRFTFSRDNAKNTVYLQMNSLKPEDPAVYYCAKTLGSQNYDFDYWGQGTQVTVSS | low polyreactivity
QVQLVESGGGLDQAGGSLRLSCAASGSIFTDNAMGWYRQAPGKERELVASITIAGSTKYADSVKGRFTISRDNAKKTVYLQMNSLKPEDTAVYYCNAEASDLHDYWGQGTQVTVSS | low polyreactivity
